Assay results taken from publication PMC3445047.

Substrate: CC(=O)N[C@H]1[C@H](Oc2ccc([N+](=O)[O-])cc2)O[C@H](CO)[C@@H](O)[C@@H]1O
Test: purified protein
Conditions: pH 5.5, 30 °C

B1: OfHex2 (Ostrinia furnacalis) (protein)
chain: IYNNNPGPKYPPTKGEVWPKPQYQKLERYYFTVNTSAFKIKATNHTCPILAKAIERYSFIMRNTFNLDLNRKPKTSRHRLPRETNSEDPYYQGLLKELDIELISPCEEYPYFNMDESYELTISTTAKLLSSSIWGILRGLESWSHLLYLTDDKDGVSIDICVNRTHIADFPRYAHRGLLLDTGRHFISMSNILKTLDAMAMNKLNVFHWHIVDDQSFPYQSEKFPDLSGKGAFDPSLVYTKDDIARVVQYATERGIRVLPEFDVPGHTRSWGEAFPNVLTECFSDGKVVGVGPMNPTVNTTYKLFQELMEEVQEWFPDKYFHIGGDEVQFDCWESNPDLQQYMKDHHMTATQLHALFMKNVIPLLGNNTKPIVWQEVFDVGVPLSSDTIIHVWKNGWVEEMVKILKAGHRLIFSASWYLDHLKTGGDWEDMYMADPRLMVNLVDDTAPLDNIVGGEACMWGEVVDDTNVINRVWPRTSAAAERLWSAGLASNSLERNVRLSILDKARHRIEEHACRMRRRAINAQPPNGPGFCVGAKLF
  Km: 0.463 ± 0.027 mM
  kcat: 151 ± 6.21 s⁻¹
  kcat/Km: 326000 M⁻¹ s⁻¹
